# Measurements taken from patent publication US10717774B2, “Compositions and methods for treating cancers” (Kiromic, Inc., priority 2016, dated 2020).
# B1: CBPI1: novel Gal-3 N-terminal truncation protein, identical in sequence to native Gal-3 amino acids 109-250 (protein)
# chain: APAGPLIVPYNLPLPGGVVPRMLITILGTVKPNANRIALDFQRGNDVAFHFNPRFNENNRRVIVCNTKLDNNWGREERQSVFPFESGKPFKIQVLVEPDHFKVAVNDAHLLQYNHRVKKLNEISKLGISGDIDLTSASYTMI
# B2: CBPI2: novel Gal-3 N-terminal truncation protein, deletes amino acids 1-112, substitutions P113A, L114V, Y118N, and T248N (protein)
# chain: AVIVPNNLPLPGGVVPRMLITILGTVKPNANRIALDFQRGNDVAFHFNPRFNENNRRVIVCNTKLDNNWGREERQSVFPFESGKPFKIQVLVEPDHFKVAVNDAHLLQYNHRVKKLNEISKLGISGDIDLTSASYNMI
# What was measured:
# Type in all cases: cell-based, human
# [1] = system: ovarian cancer cell line SKOV3; assay: Detection of apoptosis (Annexin-V FITC / propidium iodide flow cytometry) in SKOV3; settings: for apoptotic rate of SKOV3 cells: 20 μg/mL 48 hours, combined with Paclitaxel (Pax) 100 nM for the last 24 hours, compared with Paclitaxel alone
# Method: (§1) The human multiple myeloma cell line U266, ovarian cancer cell line SKOV3, and acute monocytic leukemia cell line THP1 were cultured in RPMI 1640 with 10% FBS. The breast cancer cell line MCF7 was cultured in Dulbecco's modified Eagle's medium (DMEM) with 10% FBS. Drugs were purchased from Merck Millipore and used at the following concentrations: Bortezomib (Bor) 5 nM; Cytarabine (Ara-c) 3.87 μM; Rapamycin (Rapa) 100 nM; Paclitaxel (Pax) 100 nM.
# Cells were seeded in 48-well at the same concentrations for the MTT assay. The cells were treated with CBPI1 or CBPI2 at 20 μg/mL for 48 hours. For the last 24 hours, the appropriate drugs were added. After 48 hours, the cells were washed with cold 1×PBS, resuspended in “Binding buffer 1×” (i.e., HEPES 0.01M; NaCl 0.14M; and CaCl2 2.5 mM) and incubated for 15 minutes with Annexin-V FITC (BD Biosciences)+Propidium Iodide (2.5 μg/mL final; Sigma-Aldrich) in the dark. Finally, 400 μL of Binding Buffer 1× were added to the tube and samples were processed and analyzed using the BD FACSVerse™ System (BD Biosciences).
# (§2) Data are represented as means±SD from at least three (3) independent experiments. ***^=P<0.001; **^=P<0.01; *^=P<0.05.
# FIG. 6—After the indicated treatments, the cells were analyzed for apoptosis by flow-cytometry. Plots represent the relative of fluorescence intensities in the green (FL1, horizontal axis) and red (FL2, vertical axis) channels. The apoptosis detector, Annexin-V, is linked to a green fluorescent molecule (FITC), and produces a fluorescent signal in the FL1 channel. Cells in late apoptosis are unable to pump propidium iodide (PI) out of the cytoplasm, and are therefore red fluorescent. Red fluorescence is thus picked up by the flow-cytometer in the FL2 channel. Each dot represents a fluorescent signal (cell), detected by the flow-cytometer. Each dot-plot is divided into 4 quadrants. From bottom-left and proceeding counter-clockwise, these are Q1, Q2, Q3, and Q4. […]
# [2] = system: ovarian cancer cell line SKOV3; assay: MTT assay in SKOV3; settings: for combined effect with Pax compared to Paclitaxel alone by MTT assay: 20 μg/mL 48 hours plus Paclitaxel 100 nM for the last 24 hours; for viability of metabolically-active cells (MTT): protein alone, 20 μg/mL, 48 hours, compared to the control cells
# Method: as §1
# (§3) Cells were seeded in 96-well plates, at a volume of 100 μL cell suspension/well, in quadruplicate. SKOV3 and MCF7 cells were seeded at a density of 100,000 cells/mL. THP1 cells were seeded at a density of at 200,000 cells/mL; whereas, U266 cells were seeded at a density of 300,000 cells/mL. Cells were then treated with CBPI1 or CBPI2 at 20 μg/mL for 48 hours. For the last 24 hours, the appropriate drugs were added. Cell viability was subsequently assayed after 48 hours of incubation with 0.6 mg/mL MTT ((3-(4,5-dimethylthiazolyl-2)-2,5-diphenyltetrazolium bromide; Sigma-Aldrich) for 4 hours. Formazan crystals were dissolved in […] 0.01N HCL/isopropanol. Specific absorbance was measured at 570 nm with subtraction of background at 690 nm.
# as §2
# [3] = system: multiple myeloma cell line U266; assay: MTT assay in U266; settings: protein alone, 20 μg/mL, 48 hours
# Method: as §1, §3, §2
# [4] = system: acute monocytic leukemia cell line THP1; assay: Detection of apoptosis (Annexin-V FITC / propidium iodide flow cytometry) in THP1; settings: 20 μg/mL 48 hours, in combination with Ara-C 3.87 μM for the last 24 hours; compared to the control cells
# Method: as §1
# (§4) Cells were seeded in 48-well at the same concentrations for the MTT assay. The cells were treated with CBPI1 or CBPI2 at 20 μg/mL for 48 hours. For the last 24 hours, the appropriate drugs were added. […] Finally, 400 μL of Binding Buffer 1× were added to the tube and samples were processed and analyzed using the BD FACSVerse™ System (BD Biosciences). […]
# (§5) FIG. 6—After the indicated treatments, the cells were analyzed for apoptosis by flow-cytometry. Plots represent the relative of fluorescence intensities in the green (FL1, horizontal axis) and red (FL2, vertical axis) channels. […] Red fluorescence is thus picked up by the flow-cytometer in the FL2 channel. Each dot represents a fluorescent signal (cell), detected by the flow-cytometer. […]
# [5] = system: multiple myeloma cell line U266; assay: Detection of apoptosis (Annexin-V FITC / propidium iodide flow cytometry) in U266; settings: 20 μg/mL 48 hours, combined with Bortezomib (Bor) 5 nM for the last 24 hours; compared with Bor alone
# Method: as §1, §4, §5
# [6] = system: breast cancer cell line MCF7; assay: Detection of apoptosis (Annexin-V FITC / propidium iodide flow cytometry) in MCF7; settings: protein alone, 20 μg/mL, 48 hours; compared to the control cells
# Method: as §1, §4, §5
# [7] = system: breast cancer cell line MCF7; assay: MTT assay in MCF7; settings: protein alone, 20 μg/mL, 48 hours
# Method: as §1, §3, §2
# [8] = system: acute monocytic leukemia cell line THP1; assay: MTT assay in THP1; settings: protein alone, 20 μg/mL, 48 hours
# Method: as §1, §3, §2
Molecule,apoptotic rate of SKOV3 cells [1],combined effect with Pax compared to Paclitaxel alone by MTT assay [2],viability of metabolically-active cells (MTT) [2],viability of metabolically-active cells (MTT) [3],apoptotic rate of THP1 cells [4],"apoptosis in ovarian cancer cells ([1]; protein alone, 20 μg/mL, 48 hours, SKOV3)",U266 cells apoptosis rate [5],MCF7 cells apoptotic rate [6],viability of metabolically-active cells (MTT) [7],viability of metabolically-active cells (MTT) [8]
B1,significantly increase,not evident,significantly decrease,significantly decrease,significantly increase,–,–,–,–,–
B2,significantly increase,not evident,significantly decrease,significantly decrease,significantly increase,effective in causing apoptosis,significantly increase,significantly increases,significantly decreases,significantly decreases
